Source: patent publication US20140274782A1, “AFFINITY REAGENTS AND METHODS FOR DETECTION, PURIFICATION, AND PROTEOMIC ANALYSIS OF METHYLATED PROTEINS” (The Board of Trustees of the Leland Stanford Junior …, priority 2013, published 2014)

Target: RPL14-60S ribosomal protein L14 (human) (UniProt P50914)
Experiment: ProtoArray, GST-treated control array

Sequence of 3× Flag-3×MBT (designed binder; other documents disagree on this pair) (Q9Y468 258-598): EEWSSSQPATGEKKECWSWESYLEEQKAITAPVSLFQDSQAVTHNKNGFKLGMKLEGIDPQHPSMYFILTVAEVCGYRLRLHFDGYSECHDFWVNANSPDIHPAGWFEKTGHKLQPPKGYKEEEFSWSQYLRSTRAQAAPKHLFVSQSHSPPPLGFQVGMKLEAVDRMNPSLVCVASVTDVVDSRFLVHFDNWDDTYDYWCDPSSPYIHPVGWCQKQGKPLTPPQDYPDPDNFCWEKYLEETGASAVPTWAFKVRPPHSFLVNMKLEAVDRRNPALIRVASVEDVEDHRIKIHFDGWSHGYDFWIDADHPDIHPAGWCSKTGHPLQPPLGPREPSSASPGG

With “3× Flag-3×MBT (designed binder; other documents disagree on this pair)” the GST Average SNR was 0.728.
